Numbering of substitutions follows the chain as printed.
T1: human DLL3 (human, UniProt Q9NYJ7 27-492, limits assumed)
T1 construct: also called hDLL3; DLL3 protein
T1 sequence: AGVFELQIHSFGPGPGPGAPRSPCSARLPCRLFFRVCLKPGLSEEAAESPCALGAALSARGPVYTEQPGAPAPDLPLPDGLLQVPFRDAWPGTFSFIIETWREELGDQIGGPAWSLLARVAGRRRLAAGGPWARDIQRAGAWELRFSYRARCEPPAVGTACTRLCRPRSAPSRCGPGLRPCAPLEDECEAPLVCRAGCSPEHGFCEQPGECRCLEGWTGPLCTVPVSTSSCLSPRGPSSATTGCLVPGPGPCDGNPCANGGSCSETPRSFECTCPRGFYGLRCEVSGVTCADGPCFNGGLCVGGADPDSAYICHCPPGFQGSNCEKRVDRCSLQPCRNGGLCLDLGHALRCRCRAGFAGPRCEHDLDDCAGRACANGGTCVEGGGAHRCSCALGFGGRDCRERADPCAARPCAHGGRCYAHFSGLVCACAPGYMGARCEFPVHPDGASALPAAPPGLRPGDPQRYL

B1: SC16.135 (antibody, V domains shown)
VH: QVQLQQSGAELVRPGTSVKVSCKASGYAFTNYLIEWVKQRPGQGLEWIGVINPGSGGTNSNEKFKAKATLTADKSSSTAYMQLSSLTSADSAVYFCARSDYDYAFYAMDYWGQGTSVTVSS
VL: DIKMTQSPSSMYASLGERVTITCKASQDINRYLSWFQQKPGKSPKTLIYRANRLVDGVPSRFSGSGSGQDYSLTISSLEYEDMGIYYCLQYDEFPFTFGSGTKLEIK
notes: murine mAb
B2: SC16.141 (antibody, V domains shown)
VH: QVQLKQSGPGLVAPSQSLFITCTVSGFSLTSYEINWVRQPPGKGLEWLGVIWTGGSTNYNSALISRLSISKDNSKSLVFLKMNSLQTDDTAIYYCVRGVYAMDYWGQGTSVTVSS
VL: B1 VL with R31S
notes: murine mAb
B3: SC16.122 (antibody, V domains shown)
VH: EVQLVESGGGLVKPGGSLKLSCAASGFTFSDYYMFWVRQTPEKRLEWVATISDGGSYTYFPDSVKGRFTISRDNAQNNLYLQMSSLKSEDTAMYYCARAGTLYAMDYWGQGTSVTVSS
VL: DIVMTQSQKFMSTSVGDRVSVTCKASQNVGTNVAWYQQKPGQSPKVLIYSASYRYSGVPDRFTGSGSGTDFTLTISNVQSEDLAEFFCQQYNSYPLTFGGGTKLEIK
notes: murine mAb
B4: SC16.134 (antibody, V domains shown)
VH: EVQLQQSGPDLVKPGASVKISCKASGYSFTGYYMHWVKQSHGKRLEWIGRVNPNNGGTNYNQKFKGKAILTVDKSSSTAYMELRSLTSEDSAVYYCARGSYDNAEGWGQGTLVTVSA
VL: DIVLTQSPASLAVSLGQRATISCKASQSVDHAGDSYMNWYQQKPGQPPKLLIYAASNLESGIPARFSGSGSGTDFTLNIHPVEEEDAATYYCQQSNEDPYTFGGGTKLEIK
notes: murine mAb
B5: SC16.137 (antibody, V domains shown)
VH: EVQLVESGGDLVKPGGSLKLSCAASGFTFSSYGMSWVRQTPDKRLEWVATISSGGSYTYYPDSVKGRFTISRDNAKNTLYLQMSSLKSEDTAMYYCARRRADAMDYWGQGTSVTVSS
VL: QIVLTQSPAIMSASLGEEITLTCSASSSVSYMHWYQQKSGTSPKLLIYSTSNLASGVPSRFSGSGSGTFYSLTISSVEAEDAADYYCHQWSSYHTFGGGTKLEIKR
notes: murine mAb
B6: SC16.126 (antibody, V domains shown)
VH: QVQMKESGPGLVAPSQSLSITCTVSGSSLTNYGVHWVRQPPGKGLEWLGVIWAGGSTNYNSALMSRLSISKDNSKSQVFLKMNSLQTDDTAMYYCARDWEGWFAYWGQGTLVTVSA
VL: DIQMNQSPSSLSASLGDTITITCHASQNINVWLSWYQQKPGNIPKLLIYKASNLHTGVPSRFSGSGSGTGFTLTISSLQPEDIATYYCQQGQSYPFTFGSGTKLEIK
notes: murine mAb
B7: SC16.131 (antibody, V domains shown)
VH: QVQLKESGPGLVAPSQSLSITCTVSGFSLTNYGVHWVRQPPGKGLEWLGVIWAGGITNYNSALMSRLSISEDNSKSQVFLKMNSLQTDDTAMYYCARNLGPYAMDYWGQGTSVTVSS
VL: B6 VL with A25V, Y49Q
notes: murine mAb
B8: SC16.149 (antibody, V domains shown)
VH: B6 VH with M4L, T23A, S27F, N31S, Y32F, N60Y, K71I
VL: B6 VL with N53H, F62L, K103T
notes: murine mAb
B9: SC16.124 (antibody, V domains shown)
VH: EVQLQQSGPELVKPGASVKMSCKASGYTFTSYVMHWVKQKPGQGLEWIGYINPYNDGTKYNEKFKGKATLTSDKSSSTAYMELSSLTSEDSAVYYCARGALYYGNYLGYFDVWGAGTTVTVSS
VL: DIQMTQSPASQSASLGESVTITCLASQTIGTWLAWYQQKPGKSPQLLISAATSLADGVPSRFSGSGSGTKFSFKISSLQAEDFVSYYCQQLYSTPWTFGGGTKLEIK
notes: murine mAb
B10: SC16.132 (antibody, V domains shown)
VH: QVQLKESGPGLVAPSQSLSITCTVSGFSLTDYGVSWIRQPPGKGLEWLGVVWGGGSTYYNSALKSRLSITKDNSKSQVFLKMNSLQTDDTAMYYCAKQRGQYGAYWGQGTLVTVSA
VL: B9 VL with S49Y
notes: murine mAb
B11: SC16.129 (antibody, V domains shown)
VH: B10 VH with V51I, T70S, K81E, M82L, M92I, Q98H, R99Y, Q101H, G103A
VL: B9 VL with S49Y, W96Y
notes: murine mAb
B12: SC16.138 (antibody, V domains shown)
VH: B10 VH with T70S
VL: B9 VL with S49Y, A50S
notes: murine mAb
B13: SC16.140 (antibody, V domains shown)
VH: QVQLQQSGPELVRPGASVKMSCKASGYTFTSYWMHWVKQRPGQGLEWIGMIDPSNSETRLNQKFKDKATLNVDKSSNTAYMQLSSLTSEDSAVYYCAVMDYYFDYWGQGTTLTVSS
VL: DIVLTQSLASLAVSLGQRATISCRASKSVSTSGYSYMHWYQQKPGQPPKLLIYLASNLESGVPARFSGSGSGTDFTLNIHPVEDEDAATYYCQHSRELPFTFGGGTKLEIK
notes: murine mAb
B14: SC16.11 (antibody, V domains shown)
VH: QIQLVQSGPELKKPGETVKISCKASGYTFTDYSMHWVKQAPGKGLKWMGWINTETVEPTYADDFMGRFAFSLETSASTAFLQINNLENEDTATYFCARFGSYAMDYWGQGTSVTVSS
VL: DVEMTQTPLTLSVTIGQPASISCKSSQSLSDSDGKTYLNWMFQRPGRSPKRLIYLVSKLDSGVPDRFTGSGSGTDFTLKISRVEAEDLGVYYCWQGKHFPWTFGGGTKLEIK
notes: murine mAb
B15: SC16.133 (antibody, V domains shown)
VH: QVQLKESGPGLVAPSQSLSITCTVSGFSLTNYAVHWVRQSPGKGLEWLGVIWSDGSTDYNAAFISRLSISKDNSKSQVFFKMNSLQADDTAMYYCARKKGGWFPWFAYWGQGTLVTVSA
VL: SIVMTQTPKFLLVSAGDRVTITCKASQSVSNDVAWYQQKPGQSPKLLIYCASNRYTGVPDRFTGSGYGTDFTFTISTVQAEDLAVYFCQQDYSSPLTFGAGTKLELK
notes: murine mAb
B16: SC16.144 (antibody, V domains shown)
VH: QIQLVQSGPELKKPGETVKISCKASGYTFTNYGMNWVKQAPGKGLKWVGWINTYTGEPTYADDFKGRFAFSLETSASTAYLQIDNLKNEDTATYFCARVGDYVGFDYWGQGTTLTVSS
VL: B15 VL with A34G, C50Y, T56N, L96W, A100G, L106I
notes: murine mAb
B17: SC16.121 (antibody, V domains shown)
VH: EVQLVESGGGLVQPKGSLKLSCAASGFTFNTYAMNWVRQAPGKGLEWVARIRIKSNNYATYYADSVKDRFTISRDDSQNMLYLQMNNLKTEDTAVYYCVRQGYSYDWGPWFAYWGQGTLVTVSA
VL: QIVLTQSPAIMSASPGEKVTITCSASSSVSYMHWFQQKPGTSPKLWIYSTSNLASGVPARFSGSGSGTSYSLTISRMEAEDAATYYCQQRSSYPPTFGGGTKLEIK
notes: murine mAb
B18: SC16.147 (antibody, V domains shown)
VH: QIQLVQSGPELTKPGETVKISCKASGYTFTDYSLHWVKQALGKGLKWMGWINTETGEPAYADDFKGRFAFSLETSASTAYLQINDLKNEDTTTYFCGIYDGYAMDYWGQGTSVTVSS
VL: DIQMTQTASSLSASLGDRVTISCRASQDINNYLNWYQQKPDGTVKLLIYYTSRLHSGVPSRFSGSGSGTDYSLTISILEQEDIATYFCQQGDTLPWTFGGGTKLEIK
notes: murine mAb
B19: SC16.143 (antibody, V domains shown)
VH: QVQLQQSGPELVKPGASVRISCKASGYTFTSYYIHWVKQRPGQGLEWIGWIYPGNGNTKYNEKFKGKATLTADKSSSTAYMQISSLTSEDSAVYFCARERWLLLWFAYWGQGTLVTVSA
VL: DVLMTQTPLSLPVSLGDQASISCRSSQSIVHSNGNTYLEWYLQKPGQSPKLLIYKVSNRFSGVPDRFSGSGSGTDFTLKISRVEAEDLGVYYCFQGSHVPLTFGAGTKLELK
notes: murine mAb
B20: SC16.123 (antibody, V domains shown)
VH: QVALKESGPGILQPSQTLSLTCSFSGFSLSTSGMGVGWIRQPSGKGLEWLAHIWWDDVKRYNPALKSRLTISKDTSSSQVFLKIASVDTADTATYYCARMEDYGSSSYFDFWGHGTTLTVSS
VL: QIVLTQSPAIMSASLGERVTMTCTASSSVSSSYLHWYQQKPGSSPKLWIYSTSNLASGVPARFSGSGSGTSYSLTISSMETEDAATYYCHQYHRSPFTFGSGTKLEIK
notes: murine mAb
B21: SC16.130 (antibody, V domains shown)
VH: EVQLQQSGPELVKPGASVKMSCKASGYTFTSYVMHWVKQKPGQGLEWIGYINPYNDGTEYNEKFKGKATLTSDKSSSTAYMELSSLTSEDSAVYYCARGVYDGYSYFDYWGQGTTLTVSS
VL: DIQLTQSPASLSASVGETVTITCRASGSIHNYLAWYQQKQGKSPQLLVYNAKTLVDGVPSRFSGSGSGTQYSLKINSLQPEDFGYYYCQHFWTTPWTFGGGTKLEIK
notes: murine mAb
B22: SC16.136 (antibody, V domains shown)
VH: EVQLQQSGPELVKPGASVKMSCKASGYTFTSYVMHWVKQKPGQGLEWIGYINPYNDGTKYNEKFKGKATLTSDKSSSTAYMELSSLTSEDSAVYYCARDRSGYEDYYGMDYWGQGTSVTVSS
VL: B21 VL with L4M, S28N, Q45H, V55A, Y85S, T93S
notes: murine mAb

Molecular target: T1, human DLL3
Assay: screen on immobilized hDLL3 or h293-hDLL3 cells
How it was run: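 After 10 days in culture, supernatants of single-cell hybridomas from human DLL3-immunized mice were tested on cells and by solid-phase ELISA. A flow-cytometry signal above the control level counted as binding. The ELISA used DLL3-His coated at 0.5 μg/ml, HRP anti-mouse IgG and TMB, with reading at OD 450.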

Row | Binder | binding result
1 | B1 | binds
2 | B2 | binds
3 | B3 | binds
4 | B4 | binds
5 | B5 | binds
6 | B6 | binds
7 | B7 | binds
8 | B8 | binds
9 | B9 | binds
10 | B10 | binds
11 | B11 | binds
12 | B12 | binds
13 | B13 | binds
14 | B14 | binds
15 | B15 | binds
16 | B16 | binds
17 | B17 | binds
18 | B18 | binds
19 | B19 | binds
20 | B20 | binds
21 | B21 | binds
22 | B22 | binds

From patent US20190201542A1 (AbbVie / Abbott, published 2019)
